Results published in patent US20200024330A1.

How the values were obtained:
Experiment in all cases: cell-based or functional assay
[1] = biological target: HIV-1 Env of isolate VLGCA1 (clade A), on pseudovirus (HIV-1)
[2] = biological target: HIV-1 Env of isolate MGRM-C-013 (HIV-1)
[3] = biological target: HIV-1 Env of isolate MGRM-Chronic-B-002 (HIV-1)
[4] = biological target: HIV-1 Env of isolate MGRM-AE-002 (CRF01_AE), on pseudovirus (HIV-1)
[5] = biological target: HIV-1 Env of isolate MGRM-C-008 (HIV-1)
[6] = biological target: HIV-1 Env of isolate 93UG077 (HIV-1)
[7] = biological target: HIV-1 Env of isolate MGRM-AE-004 (CRF01_AE), on pseudovirus (HIV-1)
[8] = biological target: HIV-1 Env of isolate MGRM-D-022 (HIV-1)
[9] = biological target: HIV-1 Env of isolate MGRM-AG-009 (CRF_AG), on pseudovirus (HIV-1)
[10] = biological target: HIV-1 Env of isolate MGRM-AE-001 (CRF01_AE), on pseudovirus (HIV-1)
[11] = biological target: HIV-1 Env of isolate MGRM-F1-020 (subtype F), on pseudovirus (HIV-1)
[12] = biological target: HIV-1 Env of isolate MGRM-D-020 (HIV-1)
[13] = biological target: HIV-1 Env of isolate MGRM-D-008 (HIV-1)
[14] = biological target: HIV-1 Env of isolate MGRM-AG-002 (CRF_AG), on pseudovirus (HIV-1)
[15] = biological target: HIV-1 Env of isolate 92UG005 (HIV-1)
[16] = biological target: HIV-1 Env of isolate MGRM-AG-003 (CRF_AG), on pseudovirus (HIV-1)
[17] = biological target: HIV-1 Env of isolate MGRM-AG-001 (CRF_AG), on pseudovirus (HIV-1)
[18] = biological target: HIV-1 MGRM-D-018 envelope glycoprotein (Env) on pseudovirus (HIV-1)
[19] = biological target: HIV-1 Env of isolate 92UG024 (clade D) (HIV-1)
[20] = biological target: HIV-1 92UG024 envelope protein (Env) on pseudovirus (HIV-1)
[21] = biological target: HIV-1 Env of pseudovirus NL43, clade B (HIV-1)
[22] = biological target: HIV-1 MGRM-C-017 Env (HIV-1)
[23] = biological target: HIV-1 92RW021 envelope glycoprotein (Env) on pseudovirus (HIV-1)
[24] = biological target: HIV-1 MGRM-A-004 envelope glycoprotein (Env) (HIV-1)
[25] = biological target: HIV-1 Env of isolate MGRM-D-005 (clade D) (HIV-1)
[26] = biological target: HIV-1 MGRM-C-004 Env (HIV-1)
[27] = biological target: HIV-1 MGRM-C-019 Env (HIV-1)
[28] = biological target: HIV-1 Env of pseudovirus APV_17, clade B (HIV-1)
[29] = biological target: HIV-1 Env of isolate MGRM-D-014 (clade D) (HIV-1)
[30] = biological target: HIV-1 Env of isolate MGRM-G-014 (clade G pseudovirus) (HIV-1)
[31] = biological target: HIV-1 MGRM-C-025 Env (HIV-1)
[32] = biological target: HIV-1 MGRM-A-011 envelope glycoprotein (Env) (HIV-1)
[33] = biological target: aMLV envelope protein on pseudovirus
[34] = biological target: HIV-1 MGRM-A-010 envelope glycoprotein (Env) (HIV-1)
[35] = biological target: HIV-1 MGRM-F1-006 Env (pseudovirus) (HIV-1)
[36] = biological target: HIV-1 92RW008 envelope glycoprotein (Env) (HIV-1)

Chain of 5345_I01 (PGT-137) (antibody) (VH): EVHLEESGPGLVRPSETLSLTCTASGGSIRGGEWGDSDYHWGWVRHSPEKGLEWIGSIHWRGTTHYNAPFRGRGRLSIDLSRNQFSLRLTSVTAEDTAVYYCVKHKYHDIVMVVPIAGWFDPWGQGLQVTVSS
Chain of 5345_I01 (PGT-137) (antibody) (VL): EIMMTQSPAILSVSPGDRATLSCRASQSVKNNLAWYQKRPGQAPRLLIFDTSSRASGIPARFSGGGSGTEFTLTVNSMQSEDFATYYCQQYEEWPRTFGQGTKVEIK
Chain of 1443_C16 (PG16) (TCN-116) (antibody) (VH): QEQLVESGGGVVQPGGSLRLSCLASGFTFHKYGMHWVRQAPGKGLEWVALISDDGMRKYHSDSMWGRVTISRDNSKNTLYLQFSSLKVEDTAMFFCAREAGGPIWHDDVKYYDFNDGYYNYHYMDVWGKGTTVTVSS
Chain of 1443_C16 (PG16) (TCN-116) (antibody) (VL): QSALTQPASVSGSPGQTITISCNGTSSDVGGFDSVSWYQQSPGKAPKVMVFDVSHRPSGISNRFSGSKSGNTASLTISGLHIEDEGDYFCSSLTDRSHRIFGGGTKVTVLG
Chain of 5329_C19 (PGT-136) (antibody) (VH): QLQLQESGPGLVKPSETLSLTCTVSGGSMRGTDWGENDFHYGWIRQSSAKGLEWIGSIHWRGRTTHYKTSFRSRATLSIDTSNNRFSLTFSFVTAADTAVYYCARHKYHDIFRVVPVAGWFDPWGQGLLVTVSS
Chain of 5329_C19 (PGT-136) (antibody) (VL): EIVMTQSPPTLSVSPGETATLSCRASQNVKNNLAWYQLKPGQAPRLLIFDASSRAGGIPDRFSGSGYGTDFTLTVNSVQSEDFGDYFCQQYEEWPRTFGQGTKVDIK

Substance | IC50, single-round pseudovirus neutralization [1] [µg/mL] | IC50 [2] [µg/mL] | IC50 [3] [µg/mL] | IC50, single-round pseudovirus neutralization [4] [µg/mL] | IC50 [5] [µg/mL] | neutralization IC50 [6] [µg/mL] | IC50, single-round pseudovirus neutralization [7] [µg/mL] | IC50 [8] [µg/mL] | IC50, single-round pseudovirus neutralization [9] [µg/mL] | IC50, single-round pseudovirus neutralization [10] [µg/mL] | IC50, pseudovirus neutralization [11] [µg/mL] | IC50 [12] [µg/mL] | IC50 [13] [µg/mL] | IC50, single-round pseudovirus neutralization [14] [µg/mL] | IC50 [15] [µg/mL] | IC50, single-round pseudovirus neutralization [16] [µg/mL] | IC50, single-round pseudovirus neutralization [17] [µg/mL] | also measured
5114_A19 (PGT-128) (antibody) | 0.838 | > 50 | 0.036 | 0.522 | 0.373 | 0.014 | > 50 | > 50 | 0.021 | 0.069 | 0.355 | 0.011 | 0.033 | 4.99 | 0.018 | 34.8 | 4.73 | 
5136_H01 (PGT-131) (antibody) | > 50 | > 50 | > 50 | > 50 | > 50 | > 50 | > 50 | > 50 | > 50 | 4.8 | > 50 | > 50 | > 50 | > 50 | 0.854 | 2.92 | > 50 | 
5343_B08 (PGT-135) (antibody) | > 50 | > 50 | > 50 | > 50 | > 50 | > 50 | > 50 | > 50 | > 50 | > 50 | 0.168 | > 50 | > 50 | > 50 | > 50 | > 50 | > 50 | 
5147_N06 (PGT-130) (antibody) | > 50 | > 50 | > 50 | 1.53 | 7.28 | 21.4 | 2.43 | > 50 | 9.46 | 1 | 9.73 | 24.7 | > 50 | > 50 | 0.959 | 0.041 | > 50 | IC50 (ug/ml), neutralizing activity [18]: 0.0378 µg/mL; neutralization IC50 [19]: > 10 µg/mL; neutralization IC80 [19]: > 10 µg/mL; neutralization IC90 [19]: > 10 µg/mL; neutralization IC95 [19]: > 10 µg/mL
5329_C19 (PGT-136) (antibody) | > 50 | > 50 | > 50 | > 50 | > 50 | > 50 | > 50 | > 50 | > 50 | > 50 | 9.31 | > 50 | > 50 | > 50 | > 50 | > 50 | > 50 | 
1443_C16 (PG16) (TCN-116) (antibody) |  |  |  |  |  |  |  |  |  |  |  |  |  |  |  |  |  | neutralization IC50 [20]: > 50 µg/mL; IC50 (µg/ml), pseudovirus neutralization [21]: 0.02 µg/mL; IC50 [22]: 1.8 µg/mL; IC50 (µg/ml), pseudovirus neutralization [23]: 0.11 µg/mL; IC50 (µg/ml), pseudovirus neutralization [24]: 0.04 µg/mL; IC50 (µg/ml), pseudovirus neutralization [25]: 19.7 µg/mL; IC50 [26]: 5.09 µg/mL; IC50 [27]: 0.002 µg/mL; IC50 (µg/ml), pseudovirus neutralization [28]: 24.8 µg/mL; IC50 (µg/ml), pseudovirus neutralization [29]: 0.003 µg/mL; IC50 (µg/ml), pseudovirus neutralization [30]: 6.98 µg/mL; IC50 [31]: 0.04 µg/mL; IC50 (µg/ml), pseudovirus neutralization [32]: 0.24 µg/mL; IC50 (µg/ml), pseudovirus neutralization [19]: 24 µg/mL; neutralization IC50 [33]: > 50 µg/mL; IC50 (µg/ml), pseudovirus neutralization [34]: 0.004 µg/mL; IC50 (µg/ml), pseudovirus neutralization [35]: 0.27 µg/mL; IC50 (µg/ml), pseudovirus neutralization [36]: 0.002 µg/mL
5345_I01 (PGT-137) (antibody) | > 50 | > 50 | > 50 | > 50 | > 50 | > 50 | > 50 | > 50 | > 50 | > 50 | 1.93 | > 50 | > 50 | > 50 | > 50 | > 50 | > 50 | 
2G12 (antibody) |  |  |  |  |  |  |  |  |  |  |  |  |  |  |  |  |  | neutralization IC50 [20]: 0.59 µg/mL; IC50 (µg/ml), pseudovirus neutralization [21]: 0.49 µg/mL; IC50 [22]: > 50 µg/mL; IC50 (µg/ml), pseudovirus neutralization [23]: > 50 µg/mL; IC50 (µg/ml), pseudovirus neutralization [24]: > 50 µg/mL; IC50 (µg/ml), pseudovirus neutralization [25]: 25.7 µg/mL; IC50 [26]: > 50 µg/mL; IC50 [27]: > 50 µg/mL; IC50 (µg/ml), pseudovirus neutralization [28]: > 50 µg/mL; IC50 (µg/ml), pseudovirus neutralization [29]: > 50 µg/mL; IC50 (µg/ml), pseudovirus neutralization [30]: > 50 µg/mL; IC50 [31]: > 50 µg/mL; IC50 (µg/ml), pseudovirus neutralization [32]: > 50 µg/mL; IC50 (µg/ml), pseudovirus neutralization [19]: 0.42 µg/mL; neutralization IC50 [33]: > 50 µg/mL; IC50 (µg/ml), pseudovirus neutralization [34]: 17 µg/mL; IC50 (µg/ml), pseudovirus neutralization [35]: > 50 µg/mL; IC50 (µg/ml), pseudovirus neutralization [36]: 22.5 µg/mL
